# Reference: the nanobody polyreactivity screen of Harvey et al. (2022)
# Experiment: yeast display, Sf9 membrane polyspecificity reagent, FACS + sequencing; frameworks hold sequencing errors
# Summary of the method: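 Synthetic nanobody libraries on Saccharomyces cerevisiae BJ5465 were galactose-induced for 36–48 hours, stained 1 hour at 4 °C with 10% biotinylated, detergent-solubilized Sf9 membrane reagent and enriched on streptavidin microbeads. FACS then separated cells into low and high (top ~1%) gates by anti-HA (expression) and streptavidin (reagent binding) fluorescence. Genes were colony-PCR amplified, MiSeq 2 × 250 sequenced and CDR-length filtered. A clone's polyreactivity label is that of its gate of origin.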
row,Sequence,polyreactivity (PSR sort gate)
1,QVQLVESGGGLVQAGGSLRLSCAASGRIFGGYTMGWYRQAPGKEREFVATISRSSGSTYYADSVKGRFTISRDNAKNTVYLQMNSLKPEDTAVYYCAAVYLYATGYDYWGQGTQVTVSS,high polyreactivity
2,QVQLVESGGGLVQAGGSLRLSCAASGRTLRRYAMGWYRQAPGKERELVAGISRNGGSTYYADSVKGRFTISRDNAKNTVYLQMNSLKPDDTAVYYCNKVAYPYSILRYGYWGLGTQVTVSS,high polyreactivity
3,QVQHVESGGGLVQAGGSLRLSCAASGSIFNRNAMGWYRQAPGKERELVAAITRRGGSTYYADSVKVRFTISRDNAMNTVYLQMNSLKPEDTAVYYCAAATRKTEYDYWGQGSQVTVSS,high polyreactivity
4,QVQLVESGGCLVQAGGSLRLSCAASGSIFVSYAMGWYRQAPGTERELVAAITGRTGSTYYADSVKGRFTISRDNAQNTVYLQMNSLKPEDTEVYYCAARHKPHHRYDYWGQGTQVTVSS,low polyreactivity
5,QVQLVESGGGLVQAGGSLSLSCAASGLTFYKNAMGWYRQAPGKERELVAVISSSGGSTYYADSVKGRFTISRDHAKNTVYLQMNSLKPEDTAVYYCARDLYTEYRWGRLTYDYWGQGTQVTVSS,low polyreactivity
6,QVQLVESGAGLVQAGGSLRLSCAASGSIFIHYAMGWYRQARGKERELVAAITGDGNTTYADSVKGRFTISRDNAQNTVNLQINSLKPEDTAVYYCAVTIVDYYWAFDYWGQGTQVTVSS,low polyreactivity
7,QVQLVESGVGLVQAARSLRLSCAASGRTFGSYAMGWYRQAPGKEREFVAGISYGGGRTYYADSVKGRFTISRDTAKNTVYLQMNSLKPADTAVYYCAADGVYRYNYPYLYTYDYWGQGTQVTVSS,low polyreactivity
8,QVQLVESGGGLVQAGRSHRLSCAASGRTFKPYAMGWYRPAPGKERELVARISGSGGSTYYADSVKGRFTISRDYAKNTVYLQMNSLNPEDIAVYYCATTPYYWFDYWGQGRQVTVSS,low polyreactivity
9,QVQLVESGGGLVQAGGSLRLSCADSGSTFSPDAMGWYIQAPGKERALVAAIRYSGTSTYYADSVKGRFTISRDNAKKTVYLQMNSLKPEDTAVYYCNTVFKYQGVRPYGYWGQGTQVTVSS,high polyreactivity
10,QVQLVESGGGLVQAGGSLRLSCAASGRTFAFYAMGWYRQAPGKERELVASISSSGDRTYYADSVKGRFTISRDNAKNTVYLQMNSLKPEDTAVYYCAARWSYTYYYWGQGTQVTVSS,high polyreactivity
11,QVQLVESGGGLVQAGGSLRLSCAASGSIFSSNAMGWYRQAPGKERELVAAITSGGSTTYADSVKGRFTISRDNAKNTVYLQMNSLKPEDTAVYYCAADPVYRYYHGWTYLDYDYWGQGTQVTVSS,low polyreactivity
12,QVQLVESGGGLVQAGGSLRLSCAASGSTFWFYAMGWYRQAHGKERELVAVISNSGSTYYADSVKGRFTISRDNAKNTVYLQMNSLKPEDTAVYYCNKDGGGDSYWYDYWGQGTQVTVSS,low polyreactivity
13,QVQLVESGGGLVQAGGSLRLSSAASGLIFVHYAMGWSRQAPGKERELVSAISFRGGRTYYADSVKGRFTISRDNAKNTVYVQMNSLKPEDTAVSYCAATIKAYPTPLLGDYWGQGTQVTVSS,high polyreactivity
14,QVQLVESGGGLVQAGGSLRLSCAASVRTFNFYASGLYRQATRKQRELVAAIRRGGSTNYADSVKGRFTISRDNAKNTVYLQMNSLIREDTAVYYCNKRVWYPYWTVDYWGQGTQVTVSS,low polyreactivity
15,QVQLVESGGGLVQAGGSLRLSCAASGYIFQYYAKGWYRQAPGKERELVAAITGGGSTKYADSVKGRFTISRDNAKHTVYLQMNSLKPEDTAVYYCAKRYPSWFNYWGQGTQVTVSS,high polyreactivity
16,QVQLVESGGGLVQAGGSLRLSCAASGFIFYSNAMGWYRQAPGKERELVAAIRSTGSTSYADSVKGRFTISRDNAKNTVYLQMNILKPEDTAVYYCAKVRYWRGYDYWGQGTQVTVSS,high polyreactivity
17,QVQLVESGGGLVQAGGSLRLSCAASGRIFNGYAMGWYRQAPGKERELVAAITTSGGSTYYADSVKGRFTISRDNAKNTVYLQMNSLKPEDTAVYYCAKYYPRYAYDYWGQGTQVTVSS,low polyreactivity
18,QVQLVESGGGLVQAGGSLRLSCAASGRIFGVYAMGWYRQAPGKERELVAAIYSGSTTYYADSVKGRFTISRDNAKNTVYVQMNSLKPEDTAVYYCAAVSRDDNYQDYYSWGQGTQVTGSS,low polyreactivity
19,QVQHVESGGGLVQAGGSLRLSCAASGRTFKGYAMGWYRQAPGKESQLVAGISTGGNTNYADSVMGRFTISRDNAKNTVYLQMNSLKPEDTAVYYCNAVYRGFTHYTGYEYWGQGTQVTVSS,high polyreactivity
20,QVQLVESGGGLVQAGGSLRLSCAASGRNISYNAMGWSRQAPGKERELVAAISWGGGSTYYADSVKGRFTISRDNAKNTVYLQMNSLKPEDTAVYYCAKGWYRIKRNDYWGQGTQVTVSS,low polyreactivity
21,QVQLVETGGGLVQAGGSLRLSCAASGFTFTGNTMGWSRQAPGKERELVAAISQSGSRTYYADSVKGRFTISRDNAKNTVYLQMNSLKPEDTAVYYCNADYSSYWTSYDYWGQGTQVTVSS,high polyreactivity
22,QVQLVESGGGLVQAGGSLRLSCAASGRTFKWYPMGWYRQATGKERELVAGITSTGTTSYADSVKGRFTISRDNAKNTVYLQMNSLKPEDTAVYYCNTYYRWWKYDYWGQGTQVTVSS,high polyreactivity

row,Sequence,polyreactivity (PSR sort gate)
1,QVQLVESGGGLVQAGGSLRLSCAASGRTFYLYAMGWYRQAPGKERELVAAITSGGSTYYADSVKGRFTISRDNAKNTVYLQMNSLKPEDTAVYYCAAYAYLTAGTSRRRGYWGQGTQVTVSS,high polyreactivity
2,QVQLVESGGGLVQAGGSLRLSGAASGFIFSYYAMGWYRQAPGKERELVAAITSGGSTNYADSVKGRFTISRDNAKNTVYLQMNSLKPEDTAVYYCNALYHWGYPHEYNYWGQGTQVTVSS,low polyreactivity
3,QVQLVESGGGLVQAGGSLRLSCAASGRIFWHNAMGWYRQAPGKERELVAAISSRGGSTSYADSVKGRFTISRDNAKNTVYLQMNSLKPEDTAVYYCNARNQGYYRVWGYRGDYWGQGTQVTVSS,low polyreactivity
4,QVQLVESGGGLVQAGGSLRLSCAASGSTFYAYAMGWYRQAPGKERELVAAITSRGGSTYYADSVKGRFTISRDNAKYTVYLELISLKPEDTAVYYCDARTCWWSRYYGSWGQGTQVTVSS,high polyreactivity
5,QVQLVESGGGLVQAGGSLRLSCAASGSALYAMGWYRQAPGKEMELVADISRRGGSTFYADSVKGRFTISRDKAKNTVYLQMNSLKPEDTAVYYCAAEFITYHGDDHYYWGQGTQVTVSS,low polyreactivity
6,QVQLVESGGGLVQAGGSLRLRCAASGSTFYHNAMGWYRQAPGKERELVAAISTRGTSTYYADSVKGRFTISRDKAKNTVYLQMNSLKPEDTAVYYCNAVYKLRARYDYWGQGTQVTVSS,high polyreactivity
7,QVQLVESGGGLVQAGGSLRLSCAASGRTFNKYAMGWYRQAPGKERELVAAIRDGSGGRTNYADSVKGRFTISRDNAKNTVYLQMNSLKPEDTAVYYCNADDSKYPYYTDDYWGQGTQVTVSS,low polyreactivity
8,QVQLVESGGGLVQAGGSLRLSCAASGITFTDYAMGWYRQAPGKERELVAAITGSGTSTYYADSVKGRFTISRDNAKNTVYLQMNSLKPEDTAVYYCAARTRGTAYNYWGQGTQVTVSS,high polyreactivity
9,QFQLVESGGGLVQAGGSLRLSCAASGFIFPLYTMGWYRQAPGKETELVAAIDGGGTTYADSVKGRFTISRDNAKNTVYLQMNSLKPEDTAVYYCAADWYYQYSIYRYGYWGQGTQVTVSS,low polyreactivity
10,QVQLVESGGGLVQAGGSLRLSCAASGSTLTYYTMGWYRQAPGKERELVARISWSSGRTYYADSVKGRFTISRDNAKNTVYLQMNSLKPEDTAVYYCNADRTYYRGLDYWGQGTQVTVSS,high polyreactivity
11,QVQLVESGGGLVQAGGSLRLSCAASGLTFRYNAMGWYRQAPGKERELVARISRNGGRTYYADSVKGRFTISRDNAKNTVYLQMNSLKPEDTAVYYCNVVYFVTTSPCYDYWGQGTQVTVSS,high polyreactivity
12,QVQLVESGGGLVQAGGSLRLSCAASGRIFYYYAMGWYRQAPGKERELVAAITRGDSTTYADSVKGRFTISRDNAKNTVYLKMNILKPEDTAVYYCNAGRGTFKRYTALQYWGQGTQVTVSS,low polyreactivity
13,QVQLVESGGGLVQAGGSLRLSCAASGFTFDSYAMGWYRQAPGTERELVASISSSGSTNYADSVKGRFTISRDNAKNTVYLQMNSLKPEDTAVYYCAAESRYPFIYEYWGQGTQVTVSS,low polyreactivity
14,QVQLVESGGGLVQAGGSLRLSCAASGSIFDGNTMGWSRPAPGKERELVATIRWRGGRTYYADSVKGRFTISRDNAKNTVSLQMNSLKPEDTAVYYCNARWGYSRHRLMGYWGQGTQVTVSS,high polyreactivity
15,QVQLVESGGCLVQAGGSLRLSCAASGITFPGNAMGWYRPATGKERELVAVIRKSGTSTYYADSVKGRFTISRDNAKNTVYLQMISLIPEDTAVYYCAAGGPSTLDDYWGHGTQVTVSS,low polyreactivity
16,QVQLVESGGGLVQAGGSLRLSCAASGSTFSFYAMGRYRQAPGKERELVAAISSSGDGTYYADSVKGRFTISRDNAKKTVYLQMNSLKPEDTAVYYCATGSPSGDEWGMDYWGQGTQVTVSS,low polyreactivity
17,QVQLVESGGGLVQAGGSLRLSCAASGIIFGAYAMGLYRQAPGQERVFVAAISRSGSRTYYADSVKGRFTISRDTAKNTVYLQMNSLKPEDTAVYYCAAESPVLYYWGQGTQVTVSS,high polyreactivity
18,QVQLVESGGGLVQAGGSLRLSCAASGRIFNQYGMGWYRQAPGQEMELVAAIRSGDSTNYADSVKGRFTISRDNAKNTVYLQMNSLKPEVTAVYYCARDRPGDYAGYDYWGQGTEVTVSS,low polyreactivity
19,QVHLVESGVGLVQSGGSIRLTCAASGSTFHVYTKGSYRQAPGKEREFVASISCSGSSTYYADSVKGRFTISRDNAKNTVYLQMNSLKPEDTAVYYCNVDRWWLGWYKFNYWGQGTQVTVSS,high polyreactivity
20,QVHLVESGGGLVQAGGSLRLSCADSGRIILDYAMGWYRQAPGKERELVAAITWGGGSTNYADSVKGRFTNSRDNAKNTVYLQMNRLKPEDTAVYYCNADPHDQYDYWGKGTQVTVSS,low polyreactivity
21,QVQLVESGGGLVQAGGSLRLSCAASGNTFSISAMGWYRLAPGKERELVAAISLSGGSTYYADSVKGRFTISRDNAKNTVYLQMNSLKPEDTAVYYCAADVFTARRRYDYWGQGTQLTVSS,low polyreactivity
